From the supplement of paper PMC9732359
± gives the uncertainty stated by the source.

Assay: protein stability index of a GFP-peptide fusion (yeast GPS) (PSI 1-4); higher = more stable; sorted into four equal gates, so the index is relative within each strain
Conditions: doa10∆
In short: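 Plasmids in a pooled yeast library fused tiled 17-residue yeast protein peptides downstream of GFP and also expressed Cherry. Mid-log cultures grown without leucine were sorted into four equal gates by GFP/Cherry fluorescence ratio. Each gate's plasmids were PCR-amplified and Illumina-sequenced, and reads were matched to strains by barcodes. The protein stability index is derived by multiplying each gate's read frequency by its gate number and summing the results.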

Sequence | protein stability index
IYDFITLFSSIEPQVIN [ECM29] | 1.61 ± 0.07
IYDSEDPQQVFDERIKF [RPN3] | 3.05 ± 0.11
IYHGNHDVGELFWKVKE [PRE2] | 1.9 ± 0.063
IYSVEKKISRLPKFLTV [UBP6] | 2.04 ± 0.065
KAAFIRVNGSEFVHKYL [RPT3] | 2.22 ± 0.062
KADIGKPGRMPFNFTVT [CDC53] | 2.33 ± 0.042
KAEKAEIRKRRASSLKA [RPS6A] | 2.9 ± 0.25
KAERVEDQKVVDKALIA [RPL6A] | 3.25 ± 0.057
KAFTNWNKRDFMAFINA [ISW2] | 1.26 ± 0.078
KAGVEAISQSLRDESLT [PRE5] | 3.05 ± 0.079
KAIFQFVCRGMAATQTI [ECM29] | 1.52 ± 0.051
KAKTTKKVVLRLECVKC [RPL42A] | 1.64 ± 0.22
KAKYNTPKYRLVVRFTN [RPL5] | 1.39 ± 0.049
KALDNACGAFININEFA [CDC53] | 2.56 ± 0.12
KALQSIGQLIGEVMKEL [RPT4] | 3.35 ± 0.092
KAMDIPIGRHEELLAQY [SWP82] | 2.07 ± 0.044
KAPLEDDDKKPDDDKIV [RPT1] | 2.67 ± 0.15
KASRKSVGLPSKVASSL [ECM29] | 2.81 ± 0.055
KCGSVTVRLIPAPRGSG [RPS2] | 1.35 ± 0.11
KCGVISPRFNVKIGDIE [RPS22A] | 3.28 ± 0.1
KDDMKVDDAIELALKTL [PRE9] | 2.76 ± 0.25
KDEEIEKLLQQDREITN [MED8] | 3.26 ± 0.13
KDEETTEKARLIDFEYV [RRI2] | 3.21 ± 0.098
KDGEIMLWNLAAKKAMY [ASC1] | 2.55 ± 0.071
KDIFRYMQRTVEEAHDF [RPB2] | 2.24 ± 0.075

Sequence | protein stability index
KDLQENLLVLRGKNEII [RPO21] | 1.31 ± 0.077
KDNAIYNGFIDIFSNLS [YCS4] | 2.85 ± 0.076
KDPDVPLVLLQQIPLLC [POP3] | 2.33 ± 0.055
KDQIQAGKWFDPVLDWR [SIR4] | 3.56 ± 0.14
KDRYINGDKKVDIYSLP [YMR129W/POM152] | 3.15 ± 0.091
KDTIVKEAEDKTLVALE [RPC37] | 3.4 ± 0.11
KEDEPVVARRSNSANVS [ITC1] | 3.07 ± 0.064
KEDTVSWFKQKYDADVL [RPL11A] | 1.5 ± 0.069
KEENDEGLSAQIAFDLV [RPN2] | 3.4 ± 0.14
KEFKGIKVTVQLKIQNR [RPL12A] | 1.3 ± 0.08
KEGASTNWDDHAIIIFG [YMR153W/NUP53] | 2.86 ± 0.094
KEISTRVFNAKDTTGPK [YCS4] | 3.04 ± 0.11
KELMLQSKKLIEEKLSS [YIL149C/MLP2] | 2.95 ± 0.12
KENKKRKNFKMGPLYQN [IRR1] | 1.33 ± 0.046
KENLSKSSWRQEWLANL [SIR4] | 1.98 ± 0.048
KEPRLVIVTDPRLDAQA [RPS0B] | 3.41 ± 0.25
KERYTVEDELTESIALS [RRI1] | 3.1 ± 0.065
KESEISHNENKMDFSSK [YIL149C/MLP2] | 2.99 ± 0.086
KESWDPNTTKTKLRAFV [YGR119C/NUP57] | 3.5 ± 0.22
KEVASLPNKSTISKTVS [FAS2] | 3.09 ± 0.12
KFHSELQYLDKHIKNLE [RPN12] | 3.14 ± 0.12
KFILSGFIFTSMILEAI [RRI2] | 1.58 ± 0.06
KFLREVFVDGEANWPLP [RPO21] | 2.85 ± 0.085
KFNNGVVIAADTRSTQG [PUP1] | 1.6 ± 0.066
KFPDMGSLWVEFCDEPS [RPB5] | 2.75 ± 0.044

Sequence | protein stability index
KFQLKKVLCLAVAVGNV [RPL1A] | 1.63 ± 0.047
KGGEQISQLYSDAVMAE [YJL041W/NSP1] | 2.25 ± 0.12
KGPRFRKLTSQEINDRL [PRE8] | 3.09 ± 0.098
KHAEFDLSLLGYCDDIA [SIR2] | 3 ± 0.088
KHGTYDKLDDDGLIAPG [RPB2] | 3.02 ± 0.21
KHKKKHLKHENANDETT [RPB4] | 2.92 ± 0.053
KHLEDNTLLVTGPFKVN [RPL6B] | 3.03 ± 0.18
KHVGFELLSMGNAKESK [SRP72] | 2.88 ± 0.11
KHWGGGILGNKAQAKMD [RPL8A] | 3.39 ± 0.13
KHWTEKSLHEMNERDWR [PRP28] | 3.55 ± 0.21
KIADLVRIPPDQFHRDT [RPC25] | 2.18 ± 0.063
KIAERSLLLKNYLNDMH [SKP1] | 2.55 ± 0.12
KIAVLNNDKREIQEELE [SMC1] | 3.23 ± 0.067
KIFIKDPKFVNSLLAKL [YML103C/NUP188] | 2.25 ± 0.14
KIFTPNLLQISAAELER [SNF5] | 1.77 ± 0.064
KIGPLGLSPKKVGEDIA [RPL12A] | 3.3 ± 0.16
KIINKPNELSQILTVDP [RPC82] | 3.13 ± 0.28
KILQKRSISKELIVSEE [SIR3] | 2.37 ± 0.064
KIMNVTTDSLTKVLQAD [YMR129W/POM152] | 3.25 ± 0.068
KIPLFTFAKSKNYSRPS [SIR4] | 2.39 ± 0.092
KIQQHNTILNSSSDFRL [BRR2] | 2.71 ± 0.06
KIREDHINKIPSNSTTT [SRB8] | 2.63 ± 0.051
KIRELEAELSSTKVENS [YIL149C/MLP2] | 2.79 ± 0.13
KIVDKDGIRQVDDFQAQ [PRE1] | 2.9 ± 0.14
KIVYIAPLKALVQEQVR [BRR2] | 1.4 ± 0.045

Sequence | protein stability index
KKACIIFFDEIDAVGGA [RPT1] | 2.39 ± 0.052
KKASKVTVDADIDDILK [ISW2] | 2.75 ± 0.081
KKDRATGDADEPELRVL [RPO21] | 3.53 ± 0.11
KKEANLFPEQQTKEIKT [RPL6B] | 2.62 ± 0.08
KKEELVEIAYHKCDELI [RPO31] | 3.13 ± 0.25
KKFIEISDVKIQVAAFI [PRP8] | 2.84 ± 0.058
KKFVSQIQKNVDLLQFP [POP3] | 2.65 ± 0.064
KKHTKKFKRHHSDRYHR [RPL32] | 2.88 ± 0.038
KKKVYTTPKKIKHKHKK [RPS31] | 3.38 ± 0.16
KKMTKKAKRSNLYTPKA [PRP8] | 2.9 ± 0.059
KKNNAASELANPYSSYV [YAR002W/NUP60] | 2.99 ± 0.062
KKNNKIKESSKKIKGKS [SRP21] | 3.07 ± 0.1
KKPGKIAKPNTANAKHT [SMB1] | 2.87 ± 0.071
KKRNMPLQSIPEIGNRK [SWI1] | 2.62 ± 0.041
KKRSKVRKETYSSYIYK [HTB2] | 3.15 ± 0.074
KKVASANATAAESDVAK [RPL16A] | 3.08 ± 0.054
KKVLEIDFFKTDDSFED [BRN1] | 2.09 ± 0.041
KLAFGLTKLNEDDLVGV [TAF14] | 2.94 ± 0.092
KLEEESKRGNDKKHFNN [RPC53] | 3.34 ± 0.098
KLEGSENSEPPALESSP [SNF2] | 3.09 ± 0.073
KLFNRIVERETNWIIYP [CSN12] | 2.81 ± 0.19
KLHHDLKLCLGDHSSVP [YMR129W/POM152] | 2.83 ± 0.058
KLIEKKSAYANTEKDYK [SMC2] | 2.71 ± 0.057
